B1: CPEB3 Ribozyme (parent)
chain: UAACAGGGGGCCACAGCAGAAGCGUUCACGUCGCAGCCCCUGUCAGAUUCUGGUGAAUCUGCGAAUUCUGCUGUAUAUCUC

Variants of: B1
Experiment: self-cleavage, relative activity (ratio to wild type); higher = more cleavage; in vitro, sequencing
Procedure, shortened: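 Relative activity compares each variant's cleaved/total read fraction with that of the unmutated ribozyme. To get these fractions, barcoded CPEB3 ribozyme libraries from rounds of error-prone PCR were transcribed with T7 RNA polymerase for 5 hours at 37°C and then given 15 min of DNase I treatment before EDTA was added. The RNAs were reverse transcribed with template switching and sequenced on Illumina, and DNA sequencing linked barcodes to variants. A minimum of 5 reads applied, and three batches were averaged.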

Variant	self-cleavage
UAACACGGGGCCACAGCAGAAGCGUUCACGUCGCAGCCCCCGUCAGAUUCUGGUGAAUCUGCGAAUUCUGCUGUAUAUCUC [G6C U41C]	0.49
UAACACGGGGCCACAGCAGGAGCGUUCACGUCGCAGCCCCUGUCAGAUUCUGGUGAAUCUGCGAAUUCUGCUGUAUAUCUC [G6C A20G]	0.44
UAACACGGGGCCACAGCAGAAGCGUUCACGUCGCAGCCCCUGUCAGAUUCUGGUGAGUCUGCGAAUUCUGCUGUAUAUCUC [G6C A57G]	0.5
UAACAAGGGGCCACAGCAGAAGCGUUCACGUCGCAGCCCCUGUCAGAUUCUGGUGAAUCUGCGAAUUCUGCUGUAGAUCUC [G6A U76G]	0.14
UAACAAGGGGCCACAGCAGAAGCGUUCACGUCGCAGCCCCUGUCAGAUUCUGGUGAAUCUGCGAAUUCUGCUGUACAUCUC [G6A U76C]	0.27
UAACAAGGGGCCACAGCAGAAGCGUUCACGUCGCAGCCCCUGUCAGAUUCUGGUGAAUCUGCGAAUUCUGCUGUAUACCUC [G6A U78C]	0.24
UAACAAGGGGCCACAGCAGAAGCGUUCACGUCGCAGCCCCUGUCAGAUUCUGGUGAAUCUGCGAAUUCUGCUGUAUAACUC [G6A U78A]	0.11
UAACACGGGGCCACAGCAGAAGCGUUCACGUCGCAGCCCCUGUCAGAUUCAGGUGAAUCUGCGAAUUCUGCUGUAUAUCUC [G6C U51A]	0.38
UAACAAGGGGCCACAGCAGAAGCGUUCACGUCGCAGCCCCUGUCAGAUUCUGGUGAAUCUGCGAAUUCUGCGGUAUAUCUC [G6A U72G]	0.27
UAACACGGGGCCACAGCAGAAGCGUUCACGUCGCAGCCCCUGUCAGAUUCUGGUGAAACUGCGAAUUCUGCUGUAUAUCUC [G6C U58A]	0.21
UAACACGGGGCCACAGCAGAAGCGUUCACGUCGCAGCCCCUGUCAGACUCUGGUGAAUCUGCGAAUUCUGCUGUAUAUCUC [G6C U48C]	0.47
UAACACGGGGCCACAGCAGAAGCGUUCACGUCGCAGCCCCUGUCAGAUUCUGAUGAAUCUGCGAAUUCUGCUGUAUAUCUC [G6C G53A]	0.59
UAACACGGGGCCACAGCAGAAGCGUUCACGUCGCAGCCCCUGUCAGAUUCUGGUGAAUCUGCGAGUUCUGCUGUAUAUCUC [G6C A65G]	0.46
UAACACGGGGCCACAGCUGAAGCGUUCACGUCGCAGCCCCUGUCAGAUUCUGGUGAAUCUGCGAAUUCUGCUGUAUAUCUC [G6C A18U]	0.07
UAACACGGGGCCACAGCAGAAGCGAUCACGUCGCAGCCCCUGUCAGAUUCUGGUGAAUCUGCGAAUUCUGCUGUAUAUCUC [G6C U25A]	0.5
UAACACGGGGCCACAGCAGAAGCGUUCACGUCGCAGCCCCUGUCUGAUUCUGGUGAAUCUGCGAAUUCUGCUGUAUAUCUC [G6C A45U]	0.32
UAACACGGGGCCACAGCAGAAGCGUUCACGCCGCAGCCCCUGUCAGAUUCUGGUGAAUCUGCGAAUUCUGCUGUAUAUCUC [G6C U31C]	0.45

Variant	self-cleavage
UAACACGGGGCCACAGCAGAAGCGUUCACGACGCAGCCCCUGUCAGAUUCUGGUGAAUCUGCGAAUUCUGCUGUAUAUCUC [G6C U31A]	0.16
UAACACGGGGCCACAGCAGAAGCGUACACGUCGCAGCCCCUGUCAGAUUCUGGUGAAUCUGCGAAUUCUGCUGUAUAUCUC [G6C U26A]	0.47
UAACACGGGGCCACAGCAGAAGCGUUCACGUCGCAGCACCUGUCAGAUUCUGGUGAAUCUGCGAAUUCUGCUGUAUAUCUC [G6C C38A]	0.43
UAACAAGGGGCCACAGCAGAAGCGUUCACGUCGCAGCCCCUGUCAGAUUCUGGUGAAUCUGCGAAUUCUGCUGUAUAUCCC [G6A U80C]	0.45
UAACAAGGGGCCACAGCAGAAGCGUUCACGUCGCAGCCCCUGUCAGAUUCUGGUGAAUCUGCGAAUUCUGCUGUAUAUCAC [G6A U80A]	0.53
UAACACGGGGCCACAGCAGAAGCGUUCACGUCGCAGCCCCUGUCAGAUUCUGGUGAAUCUGUGAAUUCUGCUGUAUAUCUC [G6C C62U]	0.2
UAACACGGGGCCACAGCAGAAGCGUUUACGUCGCAGCCCCUGUCAGAUUCUGGUGAAUCUGCGAAUUCUGCUGUAUAUCUC [G6C C27U]	0.33
UAACACGGGGCCACAGCAGAAGCGUUCACGUCGCAGCCCCUAUCAGAUUCUGGUGAAUCUGCGAAUUCUGCUGUAUAUCUC [G6C G42A]	0.31
UAACAAGGGGCCACAGCAGAAGCGUUCACGUCGCAGCCCCUGUCAGAUUCUGGUGAAUCUGCGAAUUCUGCUGCAUAUCUC [G6A U74C]	0.54
UAACACGGGGCCACAGCAGAAGCGUUCACGUCGCAGCCCCUGUCAGAUUCUGGCGAAUCUGCGAAUUCUGCUGUAUAUCUC [G6C U54C]	0.52
UAACACGGGGCCACAGCAGAAGCGUUCACGUCGCAGCCCCUGUCAGAUUCUGGUGAAUCUGCGAAUUCUGCUGUAUAUCUC [G6C]	0.36
UAACACGGGGCCACAGCAGAGGCGUUCACGUCGCAGCCCCUGUCAGAUUCUGGUGAAUCUGCGAAUUCUGCUGUAUAUCUC [G6C A21G]	0.56
UAACACGGGGCCACAGCAGAUGCGUUCACGUCGCAGCCCCUGUCAGAUUCUGGUGAAUCUGCGAAUUCUGCUGUAUAUCUC [G6C A21U]	0.39
UAACACGGGGCCACAGCAAAAGCGUUCACGUCGCAGCCCCUGUCAGAUUCUGGUGAAUCUGCGAAUUCUGCUGUAUAUCUC [G6C G19A]	0.48
UAACACGGGGCCACAGCAUAAGCGUUCACGUCGCAGCCCCUGUCAGAUUCUGGUGAAUCUGCGAAUUCUGCUGUAUAUCUC [G6C G19U]	0.2
UAACACGGGGCCACAGCAGAAGCGUUCACGUCGCUGCCCCUGUCAGAUUCUGGUGAAUCUGCGAAUUCUGCUGUAUAUCUC [G6C A35U]	0.3
UAACACGGGGCCACAGCAGAAGCGUUCACGUCGCAGCCCCUGUCAGAUUCUGGUGAAUCUGCGAAUUCUGAUGUAUAUCUC [G6C C71A]	0.21

Source: the RNAGym collection of RNA variant scans (doi:10.1093/nar/gkz1192)
